Assay results from publication PMC10786891, “Massively parallel profiling of RNA-targeting CRISPR-Cas13d”.
Positions count from the first letter of the chain named. Names may count otherwise.

T1: EsCas13d, nuclease-dead (Eubacterium siraeum, UniProt B0MS50, R295A;H300A;R849A;H854A)
T1 sequence: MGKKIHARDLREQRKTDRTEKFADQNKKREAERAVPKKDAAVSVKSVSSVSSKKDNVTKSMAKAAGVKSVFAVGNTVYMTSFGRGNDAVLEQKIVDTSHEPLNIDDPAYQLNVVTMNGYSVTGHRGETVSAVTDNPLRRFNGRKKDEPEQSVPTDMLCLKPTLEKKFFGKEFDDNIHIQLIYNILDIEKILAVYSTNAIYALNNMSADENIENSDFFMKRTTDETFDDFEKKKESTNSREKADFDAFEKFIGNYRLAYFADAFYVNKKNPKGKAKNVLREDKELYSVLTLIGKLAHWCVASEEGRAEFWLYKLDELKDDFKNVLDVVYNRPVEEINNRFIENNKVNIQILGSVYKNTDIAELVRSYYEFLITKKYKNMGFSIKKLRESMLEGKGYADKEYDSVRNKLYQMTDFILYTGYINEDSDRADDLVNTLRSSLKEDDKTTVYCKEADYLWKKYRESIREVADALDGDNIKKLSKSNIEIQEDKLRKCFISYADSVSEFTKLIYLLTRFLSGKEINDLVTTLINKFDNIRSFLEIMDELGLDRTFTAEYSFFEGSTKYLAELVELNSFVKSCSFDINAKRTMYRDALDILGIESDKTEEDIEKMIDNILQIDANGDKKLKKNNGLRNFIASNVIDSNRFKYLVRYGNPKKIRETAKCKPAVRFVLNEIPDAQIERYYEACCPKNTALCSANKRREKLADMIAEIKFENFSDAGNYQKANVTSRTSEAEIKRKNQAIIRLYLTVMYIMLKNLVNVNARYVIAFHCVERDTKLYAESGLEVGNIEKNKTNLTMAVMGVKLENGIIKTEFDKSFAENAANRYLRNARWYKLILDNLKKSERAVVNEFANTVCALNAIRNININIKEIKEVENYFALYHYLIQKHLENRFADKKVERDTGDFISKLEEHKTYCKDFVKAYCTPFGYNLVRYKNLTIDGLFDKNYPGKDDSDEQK

B1: target 1 insA 3' of 5,insC 3' of 1 (mixed)
RNA 1: CACCCGUGCAAAAAUGCAGGGGUCUAAAACUGAGCGGAUAACCUCUCUAUGG
RNA 2: GGGAAUGGAUCCACAUCUACGAAUUCGUACCAUAGAGAGGUUAUCCGACUCACCCGAGAUCGGAAGAGCACACGU
B2: target 1 insG 3' of 21,insU 3' of 1 (mixed)
RNA 1: B1 RNA 1
RNA 2: GGGAAUGGAUCCACAUCUACGAAUUCGUACCGAUAGAGAGGUUAUCCGCUCAUCCGAGAUCGGAAGAGCACACGU
B3: target 1 G5U,U10C (mixed)
RNA 1: B1 RNA 1
RNA 2: GGGAAUGGAUCCACAUCUACGAAUUCGUACCAUAGAGAGGUCAUCCUCUCACCGAGAUCGGAAGAGCACACGU
B4: target 3 del2,del6 (mixed)
RNA 1: CACCCGUGCAAAAUUGCAGGGGUCUAAAACGACCUGAAUAUUUCAGAUCAAA
RNA 2: GGGAAUGGAUCCACAUCUACGAAUUCGUUUUUGAUCUGAAAUAUUAGGCUGCAGAUCGGAAGAGCACACGU
B5: target 3 insA 3' of 22,insU 3' of 19 (mixed)
RNA 1: B4 RNA 1
RNA 2: GGGAAUGGAUCCACAUCUACGAAUUCGUUUAUUGUAUCUGAAAUAUUCAGGUCUGCAGAUCGGAAGAGCACACGU
B6: target 3 insA 3' of 14,insA 3' of 2 (mixed)
RNA 1: B4 RNA 1
RNA 2: GGGAAUGGAUCCACAUCUACGAAUUCGUUUUUGAUCUGAAAAUAUUCAGGUACUGCAGAUCGGAAGAGCACACGU
B7: target 3 insG 3' of 7,insU 3' of 4 (mixed)
RNA 1: B4 RNA 1
RNA 2: B6 RNA 2 with A42U, U43A, A44U, U46G, G50U, U51G, A52U
B8: target 3 insC 3' of 5,insC 3' of 5 (mixed)
RNA 1: B4 RNA 1
RNA 2: B6 RNA 2 with A42U, U43A, A44U, U46C, C47A, A48C, G49C, U51G, A52U
B9: target 3 insC 3' of 4,insA 3' of 2 (mixed)
RNA 1: B4 RNA 1
RNA 2: B6 RNA 2 with A42U, U43A, A44U, U46C, C47A, A48G, G49C
B10: target 3 insU 3' of 11,insG 3' of 6 (mixed)
RNA 1: B4 RNA 1
RNA 2: B6 RNA 2 with A42U, A48G, G49A, U51G, A52U
B11: target 3 insC 3' of 13,insC 3' of 3 (mixed)
RNA 1: B4 RNA 1
RNA 2: B6 RNA 2 with A40C, U51C, A52U
B12: target 3 insG 3' of 7,insU 3' of 3 (mixed)
RNA 1: B4 RNA 1
RNA 2: B6 RNA 2 with A42U, U43A, A44U, U46G, A52U
B13: target 3 C1A,U8G (mixed)
RNA 1: B4 RNA 1
RNA 2: GGGAAUGGAUCCACAUCUACGAAUUCGUUUUUGAUCUGAAAUAGUCAGGUAUGCAGAUCGGAAGAGCACACGU
B14: target 3 U8C,U22A (mixed)
RNA 1: B4 RNA 1
RNA 2: B13 RNA 2 with U30A, G44C, A51C
B15: target 3 del1,del6 (mixed)
RNA 1: B4 RNA 1
RNA 2: B4 RNA 2 with C49U
B16: target 3 U2A,A11G (mixed)
RNA 1: B4 RNA 1
RNA 2: B13 RNA 2 with A41G, G44U, U50A, A51C
B17: target 3 insU 3' of 9,insA 3' of 8 (mixed)
RNA 1: B4 RNA 1
RNA 2: B6 RNA 2 with A42U, U43A, A44U, U46A, C47U, A48C, G49A, U51G, A52U
B18: target 3 A5C,C6A (mixed)
RNA 1: B4 RNA 1
RNA 2: B13 RNA 2 with G44U, C46A, A47C, A51C
B19: target 3 insC 3' of 9,insA 3' of 6 (mixed)
RNA 1: B4 RNA 1
RNA 2: B6 RNA 2 with A42U, U43A, A44C, G49A, U51G, A52U
B20: target 3 insU 3' of 22,insG 3' of 2 (mixed)
RNA 1: B4 RNA 1
RNA 2: B6 RNA 2 with G33U, A34G, U35A, C36U, U37C, G38U, A39G, A52G
B21: target 3 insU 3' of 6,insA 3' of 6 (mixed)
RNA 1: B4 RNA 1
RNA 2: B6 RNA 2 with A42U, U43A, A44U, U46C, C47U, G49A, U51G, A52U
B22: target 3 A11C,A18G (mixed)
RNA 1: B4 RNA 1
RNA 2: B13 RNA 2 with A34G, A41C, G44U, A51C
B23: target 3 U2A,C16U (mixed)
RNA 1: B4 RNA 1
RNA 2: B13 RNA 2 with C36U, G44U, U50A, A51C
B24: target 3 U7A,U8G (mixed)
RNA 1: B4 RNA 1
RNA 2: B13 RNA 2 with U45A, A51C
B25: target 3 C6U,A12U (mixed)
RNA 1: B4 RNA 1
RNA 2: B13 RNA 2 with A40U, G44U, C46U, A51C
B26: target 3 insA 3' of 22,insC 3' of 20 (mixed)
RNA 1: B4 RNA 1
RNA 2: B5 RNA 2 with G34C, U35G
B27: target 3 G19U (mixed)
RNA 1: B4 RNA 1
RNA 2: B13 RNA 2 with G33U, G44U, A51C

Each binder was assayed against T1, EsCas13d, nuclease-dead (assay: crRNA (strand 1, pre-loaded); Mg2+; 40 mM Tris-HCl pH 7.5, 150 mM NaCl, 6 mM MgCl2, 1 mM DTT, 0.1% Tween-20, 0.2 mg/ml BSA; 25 C; 10 min per concentration, then washed). Conditions: tags: His6-TwinStrep-SUMO cleaved; N-terminal SNAP kept (SNAP-Surface 488); label: 3' end held by stalled T7 RNA polymerase.

| Binder | Kd |
| --- | --- |
| B1 | 8.4 ± 1.6 nM |
| B2 | 71 ± 12 nM |
| B3 | 95 ± 19 nM |
| B4 | 18 ± 1.85 nM |
| B5 | 65 ± 15 nM |
| B6 | 64 ± 10 nM |
| B7 | 32 ± 6.1 nM |
| B8 | 11.1 ± 0.7 nM |
| B9 | 23.9 ± 3.2 nM |
| B10 | 87 ± 14.5 nM |
| B11 | 81 ± 22 nM |
| B12 | 47.5 ± 10.5 nM |
| B13 | 74 ± 16 nM |
| B14 | 42.3 ± 4.95 nM |
| B15 | ~56 nM |
| B16 | 73.5 ± 24 nM |
| B17 | 71.5 ± 21.5 nM |
| B18 | 49 ± 5 nM |
| B19 | 76.5 ± 16 nM |
| B20 | 32.2 ± 3.15 nM |
| B21 | 8.69 ± 0.57 nM |
| B22 | 73 ± 22.5 nM |
| B23 | 45.2 ± 8.25 nM |
| B24 | 84 ± 24 nM |
| B25 | 88 ± 21.5 nM |
| B26 | 86 ± 34.5 nM |
| B27 | 83 ± 9.5 nM |
